Results from patent US20050032185.

What was measured:
[1] = tested on: GST-PKBα (full length human protein kinase Bα with N-terminal glutathione S-transferase, from unstimulated 293 cells) [GST: P08515]
[2] = molecular target: HA-PKBα (haemagglutinin epitope-tagged human PKBα expressed in 293 cells) (UniProt P31749)
[3] = molecular target: GST-ΔPH-PKBα (residues 118-479 of human PKBα, lacking the PH domain) (UniProt P31749)
GST-ΔPH-PKBα (residues 118-479 of human PKBα, lacking the PH domain), sequence (P31749 whole entry, looked up, stated change not applied, the tested form may be a part): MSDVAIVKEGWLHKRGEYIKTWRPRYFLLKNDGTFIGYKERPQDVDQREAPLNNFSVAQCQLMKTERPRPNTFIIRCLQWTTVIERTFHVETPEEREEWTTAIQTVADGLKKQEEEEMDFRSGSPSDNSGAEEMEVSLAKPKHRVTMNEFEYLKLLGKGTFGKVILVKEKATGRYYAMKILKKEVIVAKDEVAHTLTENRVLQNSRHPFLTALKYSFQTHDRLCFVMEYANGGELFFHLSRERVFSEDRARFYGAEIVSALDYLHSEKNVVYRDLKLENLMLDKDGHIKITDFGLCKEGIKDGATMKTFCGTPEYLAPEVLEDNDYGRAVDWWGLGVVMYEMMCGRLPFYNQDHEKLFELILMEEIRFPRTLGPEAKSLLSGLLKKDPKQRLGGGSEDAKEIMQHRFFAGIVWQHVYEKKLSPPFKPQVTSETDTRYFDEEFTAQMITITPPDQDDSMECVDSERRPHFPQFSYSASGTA

GST-PKBα (full length human protein kinase Bα with N-terminal glutathione S-transferase, from unstimulated 293 cells) [GST: P08515], sequence (P08515 whole entry, looked up): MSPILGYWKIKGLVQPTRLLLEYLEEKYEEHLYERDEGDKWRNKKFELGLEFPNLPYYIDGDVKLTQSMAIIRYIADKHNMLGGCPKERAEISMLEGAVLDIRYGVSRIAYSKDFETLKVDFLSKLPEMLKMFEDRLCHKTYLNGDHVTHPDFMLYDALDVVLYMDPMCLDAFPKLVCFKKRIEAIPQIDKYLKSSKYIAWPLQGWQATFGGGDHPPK
HA-PKBα (haemagglutinin epitope-tagged human PKBα expressed in 293 cells), sequence (P31749 whole entry, looked up, the tested form may be a part): as the sequence (P31749 whole entry, looked up, stated change not applied, the tested form may be a part) above

PtdIns(3,4,5)P3-dependent protein kinase-1 (PDK1) purified from rabbit skeletal muscle
fold increase in GST-PKBα activity with sn-1,2-dilinoleoyl D-PtdIns(3,4,5)P3 [1]: causing a 36-fold increase in GST-PKBα activity | fold increase in GST-PKBα activity with sn-1,2-dipalmitoyl PtdIns(3,4)P2 (lipid 7) [1]: both inositol phospholipids increasing GST-PKBα activity about 6-fold | fold increase in GST-PKBα activity with sn-1,2-dipalmitoyl PtdIns(3,4,5)P3 (lipid 6) [1]: both inositol phospholipids increasing GST-PKBα activity about 6-fold | increase in GST-PKBα activity [1]: a >30-fold increase in activity | phosphorylation of GST-PKBα (mol 32P per mol protein) [1]: to a level approaching 0.7 moles of 32 P/mol protein | phosphorylation of GST-PKBα (mol/mol) in the sample used for site mapping [1]: phosphorylated to 0.4-0.6 mol/mol with PDK1 | specific activity of GST-PKBα reached after phosphorylation by PDK1 [1]: reached a specific activity of 80 U/mg | specific activity of PDK1 after Mono S (units of GST-PKBα activation per mg) [1]: 69500 U/mg | specific activity towards GST-PKBα in the presence of PtdIns(3,4,5)P3 [1]: PDK1 purified from rabbit skeletal muscle (100 000 U/mg) | phosphorylation of immunoprecipitated HA-PKB by PDK1 [2]: immunoprecipitated HA-PKB was not phosphorylated effectively by PDK1 | activation and phosphorylation of GST-ΔPH-PKBα [3]: also activated and phosphorylated GST-ΔPH-PKBα in a PtdIns(3,4,5)P3 independent manner (data not shown)

GST-ΔPH-PDK1 (residues 1-450 of human PDK1, lacking the putative C-terminal PH domain)
rate of activation of GST-PKBα by GST-ΔPH-PDK1 compared to full length wild-type GST-PDK1 [1]: the rate of activation was reduced about 30-fold compared to full length wild-type GST-PDK1

GST-D223A-PDK1 (full length catalytically inactive human PDK1, Asp223 changed to Ala)
phosphorylation and activation of GST-PKBα [1]: did not phosphorylate or active GST-PKBα in the presence of PtdCho/PtdSer lipid vesicles containing PtdIns(3,4,5)P3 (data not shown)
